{"source": "the domain aggregation screens of Martell et al. (2025)"}
{"experiment": "soluble fraction after stress (log2 fold change); higher = more stays soluble; pooled small domains, quantitative proteomics", "settings": "stress: 50 degC", "summary_of_the_method": "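Pooled custom libraries of small protein domains were measured in a high-throughput format, with quantitative proteomics as the read-out. Each library was stressed at 50°C. Aggregation propensity is given as the base-two logarithm of the fold change in how much of each protein stays soluble after the stress. Higher values mean a larger share of the protein remains in solution.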"}
{"sequence": "HMAIDPLLDKGYEQYDKGEFTEAVKSFNRAIEIDPKNAEAHFLRAMTYQGLALSKLAVADLEKAIV", "soluble fraction (log2)": 0.136}
{"sequence": "HMTTETGTVKWFNEGKGFGFIAPDGGGKDLFAHFKEIQGSGFKTLTENQRVQFEVTQGQKGPQASNIRTL", "soluble fraction (log2)": 0.243}
{"sequence": "HMQVSDTNTLEQFAKEVIEANPKAVEDYHQNPLAIGFLVGQLMKVSKGSANPQTGKEILEKLL", "soluble fraction (log2)": 0.178}
{"sequence": "HMYDRIKLLKLREKRGLTQYELAEKAGISVVTLNKIETSDMAKPFASTLKKIALALGVGIEELS", "soluble fraction (log2)": -0.121}
{"sequence": "HMEQETVTVPDLVGKDVVAAQAELHEMGLSGKPDGTGTTVVSQFPVAGARVLKHTNVILYTED", "soluble fraction (log2)": -0.0147}
{"sequence": "HMRKKTYEIITDDLRRMIEAGLIRPGEKLGAIDQLAAKYRVGRSTVREALSHLKALGLVESRQGGGTYVTK", "soluble fraction (log2)": 0.156}
{"sequence": "HMPPNHADLKSSGLKATLPRLKILEIFQNSQVRHLSAEDVYKLLLAENLDVGLATVYRVLTQFEQAGL", "soluble fraction (log2)": -0.475}
{"sequence": "HMGPSEVTLDNFVGKNYTDVVNDTSYQFTFKKEEKSDQTHAAGIIIAQSPKKGIKVKSNSTVTLTVSTG", "soluble fraction (log2)": -0.0626}
{"sequence": "HMGRTGTVVVSPSLNVRTGPWGEIIGSLYNGNKVEIIGSSGDWYQISFGGKTAYVHSDYVVDGG", "soluble fraction (log2)": -0.51}
{"sequence": "HMKQYVEPASETEKMVVELWEKVLLTEKIGMHDDFFELGGHSLKAMRLISLYHQEFNVRLSLKSLFEKLK", "soluble fraction (log2)": -0.121}
{"sequence": "HMYEDGGAFLKAEREKYGLTLTDIYEHTHIPVRKLKAYEMHEEEMPDRTRALLELYFDQVAYEYES", "soluble fraction (log2)": -0.443}
{"sequence": "HMHQALLEQSAEHAQQVKAYELLLTAERALDEENTEAFLSAMKSLKPLAENLDAKGKALYQELLPFVTEA", "soluble fraction (log2)": -0.0088}
{"sequence": "HMDSDFIKIEVLFNERNRLDLKAMMEASGFTDRGQFLSIMADLTGDENWDRNLDRGDIFYLPRSFTI", "soluble fraction (log2)": -1.22}
{"sequence": "HMGIQYVASGHYARMETDAQGVSRLFPPESGAPDESDRLAALSPEVLTRLILPLGDFAPEDVEEMAVD", "soluble fraction (log2)": 0.102}
{"sequence": "HMLELTVSDKMARLMAWRNRRRVNLSDQELHRIAAAPKQSPESILKMLPGFLQDSVPEIWAELTGGRP", "soluble fraction (log2)": -0.192}
{"sequence": "HMNFDVETGLPLDSRLVVSGLIQRDGINSLKRYEGMIVYVESEAKNYQLVGGISNTDWAELS", "soluble fraction (log2)": -0.916}
{"sequence": "HMKKNTEALDYYKKAGANFPEDEVISSEYLFRAAQLQEVLGKTDEAVAIYKDIKAKYPTTEIGLNVDKFIL", "soluble fraction (log2)": -0.0868}
{"sequence": "HMQGEVPYSQFLTEVDRGDVQSVVIEGNNISGFYKNSSTAFTVVAPDDPKLVERLMEQGVEVKARPV", "soluble fraction (log2)": 0.0205}
{"sequence": "HMYNIDSFMTKNYPTMERFTLSDVQKKYKTTFGLFVKQDELASMIEKTGRFNITSSKNVKYVNR", "soluble fraction (log2)": -1.77}
{"sequence": "HMENEIFVPKVFMDWYNKVDKSIKVFKAFNLIEKETDPRLKEWVEDNQDEFAKIWLGQLLPVV", "soluble fraction (log2)": -0.0598}
{"sequence": "HMWPQIAGFADRFGLSDTERRIVTLMSHGRSRKIIASTLGYSQNTIRNYTRNIYAKAGVHSKQELLDLLDP", "soluble fraction (log2)": -2.13}
{"sequence": "HMDYKSTLQELVQTVKKSVTYEVIDEEGPSHNKTFTSIVKIDGIVMGKGTAGSKKASEQEAARDALSKR", "soluble fraction (log2)": 0.271}
{"sequence": "HMDAPIIRLLNSLVQRAVTTTASDIHIEPFEGETKVRMRIDGVIIDYVTLQRALHQPLIARIKIMSNLD", "soluble fraction (log2)": -0.202}
{"sequence": "HMVEGMQFDRGYQSPYFVTNAEKMVAELDNPYILLVEKKISSMKELLPVLEPVAQQGKSLLIISEEVEG", "soluble fraction (log2)": -0.0564}
{"sequence": "HMPLDPFVVDALRDEIINTIKQHEPRVDLQKVQVQPIYTQNRVNISVQYKIVGLPIVEDITFVLQRP", "soluble fraction (log2)": -0.0764}
{"sequence": "HMRSFADEGTVEEWIKQAIRENEAAVADYRKGKETAVKFLMGQVMRLSKGEANPADLEDKIKAKLD", "soluble fraction (log2)": 0.0903}
{"sequence": "HMDDVIDVYATYDVSPTNQISNIKLYSDAAHANPVTGEAGKSYNDITEGHPGYQFRWSGTTWVPI", "soluble fraction (log2)": -0.295}
{"sequence": "HMDMSVDQFNQGIRGSELYQQFIHGRGLQQPDGKTREWTDADRNAWRRTLEASGVRIPDGMKIDNAGNLNE", "soluble fraction (log2)": 0.275}
{"sequence": "HMPDLQKAIDDLLQVVDKRLNTSFESILNEVNSEKEAVAFFLALLEAVRWGFVKASQSDEGIKIEK", "soluble fraction (log2)": -0.00989}
{"sequence": "HMGQELRFVIQDHEAGIRLDHYLTQQVEGYSRSHLRKLMDQGLITVDGSYRKAGYRLNVGDVIHVVIPPTR", "soluble fraction (log2)": -0.443}
{"sequence": "HMSDAIQLEQKIGLEAIEWYLALSEQTDDKLLYQQWQSWLAADPQHQLAWSRIEQVNHGLNTL", "soluble fraction (log2)": -0.706}
{"sequence": "HMFASSADGVEGLKTNPIFASTKEKSDAGKLLYTRYLAIGIFRMLELAKATDPKALEALVEAGG", "soluble fraction (log2)": 0.0895}
{"sequence": "HMGMKTSQKLARQREIVRLIRAQTIRTQAELADALRERAFPVSQPTLSKDIAELGLIKVPLPDSGYRYQLP", "soluble fraction (log2)": -0.378}
{"sequence": "HMRHYVLKENNGVIAIYKVNQENEAVFKENTQIQVQYLPEVDLINLKKGIYAIGEEKLNSILEDF", "soluble fraction (log2)": -0.613}
{"sequence": "HMTSLAGIERFLASGAIAGVGEAMAHRLVQKFGKETLEIIEKKPSRLTEVAGVGKKTAAKIHASYMEK", "soluble fraction (log2)": -0.106}
{"sequence": "HMIKRNPLDEIEGVGPGRKKALLHAFGSAKGVSRASVVDLVKVEGVSQALAERIHDFFHPATR", "soluble fraction (log2)": -0.113}
{"sequence": "HMVEVPNVSNLTLEQAENKLIQQGLQVKLEGQGEKVVAQIPQPGAVVNKKSTVILF", "soluble fraction (log2)": 0.129}
{"sequence": "HMRAFTPSEAQVAHARRVMEAFWQHQREGHGAFALDGKMVDAPIVKAAARVLARAGLQDPNHPIHLA", "soluble fraction (log2)": -0.0227}
{"sequence": "HMEDTSTLSIKHKIKELINQESPQAILSDDKLVELLAAQGIKIARRTIAKYRETMNIPTSAERKRQKRPP", "soluble fraction (log2)": 0.479}
{"sequence": "HMFKNWMPFDEARIFVRKLKFNSHDEFRKYLKANEINIPSKPWSTYKGKGWVSIGDFLGTHR", "soluble fraction (log2)": -2.82}
{"sequence": "HMETKIKFQIQTLDELNIRKVADWDAKAITTVKKGQILDVVDTVAAKNGSTPMYRLESGLYITASPKYVKK", "soluble fraction (log2)": -0.376}
{"sequence": "HMRSMEKRLTAKVKRVQEGVQAKSQAGEQPFEVVKLMQRFPKLMQFGKHAEAETVLDKALELLGEE", "soluble fraction (log2)": 0.172}
{"sequence": "HMKKEDFLEILRDYLKKGFSEDEVMDILRDYEEYFVDGIIEGKSEIEIIQSLGSPKEIANELLAES", "soluble fraction (log2)": -0.202}
{"sequence": "HMKNSIKLDNFVGMSYDEVISNKEYDFNFVSAFEKTSDYEAGTIIGQTPAAEERVMVGTTVTLTVAQP", "soluble fraction (log2)": 0.0342}
{"sequence": "HMTLSVRQRMSQIINKIDVSNFTDFTKLFDINEGRLGVAVTFLAILELLKDTMIDVIQNEEFAPLHIKVSS", "soluble fraction (log2)": -0.177}
{"sequence": "HMYGTERILAQLANYGIPNKLAFQIQDFYKEETLQIVEQQPYRLVEDIQGMGFKIADQLAEELGI", "soluble fraction (log2)": -0.317}
{"sequence": "HMEAAETAVVTGTIVNIRSGPTLDFEAFAQVKQGDRLPVLDKFYNWYYVKLPSGVNGWISGQLVRIEQ", "soluble fraction (log2)": -0.25}
{"sequence": "HMETMSGTVKWFNTQKGYGFITGDDGAEYFAHQTQIKMDGFRTLDAGDIVEFDVRSEEKGLAAVNIVP", "soluble fraction (log2)": -0.0597}
{"sequence": "HMDKSPVLQLNRDVPAGQQISADDFRTVEIGADGAFRSVPSSDLNAMVGSYAKVRLIAGTLLAREALQSG", "soluble fraction (log2)": 0.0412}
{"sequence": "HMAISEEEATNLALERVPGASAQDLRIQLEFDDGVQKYEGDIIYDGKEYDFEIDANTGTFLEWSE", "soluble fraction (log2)": -0.151}
{"sequence": "HMSDPHEELMSRIARDLSIPLTRVVAEMNTIISKEFGGHIRPEGAVVILAKRSGVEFSDLLPALRENILK", "soluble fraction (log2)": -1.05}
{"sequence": "HMKITLAESVYERIRRDIITNQLKPGEKINIRELSTRYEASETPIRLALNRLASENIIEHFPRQGMRVK", "soluble fraction (log2)": -0.371}
{"sequence": "HMNIILFLDELHRLLSDLPPEERNQAIKYYEDYFEDAGPENEQAILKELGSPQELANQIKATT", "soluble fraction (log2)": -0.627}
{"sequence": "HMRNMVSVLDHIEGIGPKRRQLLYEHYGELEKIKEASVEEMAGLDGMNRPAAEAVYNFFLAQRNL", "soluble fraction (log2)": 0.0507}
{"sequence": "HMAQFNELLFELRQDRKMTQEDLAKVLFVTSGTISNYENGVHLPDIEKLISLADFFGVTTDYLLG", "soluble fraction (log2)": -0.104}
{"sequence": "HMKNLDILTPKEIEVLNLVAKGYSNSKISKELDIAEVTVKKHIGSMFQKLDVKDRLSLALIL", "soluble fraction (log2)": -0.118}
{"sequence": "HMSNLVEVPAVIGRMKEDAITMLISAGLEPAVTYDEYPLVKENLVADQSVAPGQKVEKGSFVTITVSRS", "soluble fraction (log2)": -0.0475}
{"sequence": "HMTAMDTQQKKLIIMYHDIHRLRNVEHFTIQRIADHLLLNFRTVKKFLEMTQEEFDKFSENRW", "soluble fraction (log2)": -3.01}
{"sequence": "HMIGVQEFAMTYALTRRETEITQLIIQGKSNAMIAGELFISETTVKKHVSNIFEKTGVSRREELMVRVQAE", "soluble fraction (log2)": -1.44}
{"sequence": "HMSRTLLVYVTGAVRQPGVYELPEGSRFFDAVKAAGDVLPYAVMEDINMAEPLSDGMKIHIPLDPEQ", "soluble fraction (log2)": -0.125}
{"sequence": "HMQINLKQSSDEELVKIITVQVHHYEPHTVKAAEAEIERRGIDKMRMAHLVKKVAQENTAVQEIQD", "soluble fraction (log2)": 0.18}
{"sequence": "HMALENTDLYAHLRLSHTASVPEIQAALSARVKHMPLQTWLLARKWLLHPRLRERYDGMWSVRFGA", "soluble fraction (log2)": -2.62}
{"sequence": "HMFDFMVLGQAIKKARESKEMTREQLAEILDVAPRHIQSIENEGQYPSFPLFIRLVTMFNISVDQY", "soluble fraction (log2)": -1.92}
{"sequence": "HMVPQEVLPITLIIDGKLIEENLLYAKMTEQVLIQQLDINNIKSIKQILFAGLDSFGNFFYQEKQN", "soluble fraction (log2)": -1.8}
{"sequence": "HMSKMVEMSQEKSREKVARVKIEIQKMLDRKERVTVSGLERATGFSNSFFYRNEEVNQAVKEAQLKQ", "soluble fraction (log2)": 0.0985}
{"sequence": "HMDEAETELIRRMVSEHPPTTKRERDIVQMRLRGYLFVEIGEAYGISFQRAAQIYNAAVEKIKEYWD", "soluble fraction (log2)": 0.00188}
{"sequence": "HMAMTQNVDLAGRIVFNEKKEEVFNFGKHKGRSVAEVFEKEPSYYDWMLKGDFPAETKQVLTALRLRGLS", "soluble fraction (log2)": -0.0725}
{"sequence": "HMGIILDWELFEQFADKLKRKKVDFVIEPYLRFEGRRGEQSTLFIKDPSGNYLEFKAFKNIDMLFEK", "soluble fraction (log2)": -0.874}
{"sequence": "HMENVALYIRLKSMASVYDDVHGYNIEWIKSMIGLSIDIEKLRTVLEDVSWITKVEEDVYSFSKNAKPFE", "soluble fraction (log2)": -4.31}
